B1: CHCHD6 (parent)
chain: MYKLSSEQFHEAASKMESTIKPRR
B2: ZNF263 (parent)
chain: EKPYKCPECGEIFAHSSNLLRHQR

Variants of: B1
Assay: protein stability index of a GFP-peptide fusion (GPS, HEK-293T) (PSI 1-6); higher = more stable
Details: c terminus: a fixed tail appended
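Further: lentivirally expressed fusions sorted by FACS into six bins by GFP to DsRed ratio, PSI derived from sequencing read proportions per bin multiplied by bin number.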

In order of falling protein stability index:
1. R24D  4.2
2. R24N  4.18
3. R24T  4.12
4. R23K  4.11
5. R24S  4.11
6. R23H  3.96
7. R24A  3.91
8. R24K  3.86
9. R24M  3.86
10. R24H  3.85
11. R23P  3.78
12. R24E  3.74
13. R23S  3.7
14. R24P  3.7
15. R23M  3.65
16. R24Q  3.65
17. R23G  3.59
18. R23Y  3.44
19. R23N  3.4
20. R24G  3.39
21. R23T  3.31
22. R24L  3.31
23. R23V  3.16
24. R24Y  3.15
25. R23Q  3.12
26. R24C  3.1
27. R24F  3.06
28. R24V  3.06
29. R23I  3.05
30. R23L  2.91
31. R24I  2.86
32. R24W  2.56
33. R23W  2.54

Variants of: B2
Assay: as above
Details: c terminus: a fixed tail appended

In order of falling protein stability index:
1. H15S  4.34
2. S17C  4.32
3. S17E  4.22
4. A14E  4.13
5. C9Q  4.07
6. C9E  4.06
7. F13H  4.03
8. K2F  3.99
9. H15D  3.96
10. C9P  3.86
11. C9G  3.84
12. C9M  3.83
13. C6P  3.76
14. C6E  3.76
15. C9D  3.74
16. C6N  3.74
17. C9R  3.73
18. C9S  3.72
19. P7D  3.71
20. A14D  3.67
21. I12L  3.66
22. C9A  3.62
23. H15N  3.62
24. C6Q  3.6
25. H15T  3.55
26. S16F  3.53
27. Y4V  3.51
28. S17H  3.51
29. C9K  3.5
30. C6D  3.49
31. C9N  3.48
32. C6F  3.46
33. C9Y  3.45
34. C6T  3.45
35. S16W  3.44
36. E1Q  3.43
37. K5T  3.41
38. K5I  3.39
39. F13D  3.37
40. K2P  3.37
41. C6A  3.37
42. K2H  3.36
43. C6V  3.35
44. K2Y  3.34
45. S17D  3.33
46. S16M  3.32
47. H15E  3.3
48. H15C  3.26
49. S16Y  3.26
50. S16L  3.26
51. K2C  3.25
52. F13R  3.24
53. K2D  3.24
54. C6I  3.23
55. I12Q  3.23
56. C6L  3.19
57. E8D  3.18
58. A14V  3.17
59. A14H  3.17
60. E8C  3.16
61. H15Q  3.15
62. E8K  3.12
63. K5Q  3.12
64. P3D  3.11
65. E11R  3.09
66. K2E  3.09
67. A14G  3.09
68. C6R  3.08
69. E8H  3.07
70. Y4Q  3.06
71. E11Y  3.05
72. K2T  3.05
73. C6Y  3.05
74. S16E  3.04
75. P3Y  3.04
76. C6K  3.03
77. C9T  3.02
78. K5E  3.02
79. F13C  3.01
80. I12Y  3.01
81. E11K  3
82. K2V  3
83. Y4E  2.99
84. G10D  2.98
85. I12S  2.98
86. S16I  2.96
87. H15F  2.94
88. I12E  2.94
89. E1D  2.94
90. C9L  2.93
91. C9V  2.92
92. Y4T  2.91
93. K5A  2.91
94. P3E  2.91
95. E1R  2.9
96. K2Q  2.89
97. S17I  2.89
98. C6S  2.88
99. E8Y  2.86
100. Y4G  2.85
101. E8R  2.85
102. S17F  2.85
103. P7E  2.85
104. P3T  2.85
105. S16V  2.83
106. P3W  2.83
107. A14K  2.82
108. G10P  2.82
109. S16P  2.81
110. F13I  2.8
111. P7S  2.8
112. A14Y  2.79
113. S17L  2.79
114. P3M  2.78
115. Y4I  2.76
116. F13S  2.75
117. A14L  2.75
118. S17N  2.75
119. E1H  2.75
120. E8T  2.74
121. E8P  2.74
122. Y4K  2.73
123. S16C  2.73
124. C9I  2.72
125. C9F  2.71
126. C6H  2.71
127. A14N  2.7
128. A14P  2.7
129. P7Y  2.7
130. A14W  2.69
131. P3F  2.69
132. E11Q  2.68
133. P7V  2.68
134. S17P  2.66
135. K5F  2.66
136. H15W  2.65
137. E1T  2.65
138. K2R  2.64
139. K5S  2.64
140. S17G  2.63
141. F13P  2.62
142. K5V  2.62
143. K5R  2.61
144. K2M  2.59
145. G10H  2.59
146. A14T  2.58
147. A14F  2.57
148. A14R  2.57
149. P3L  2.57
150. C9H  2.56
151. H15G  2.55
152. F13K  2.55
153. S16H  2.55
154. K5P  2.55
155. H15P  2.54
156. F13L  2.54
157. E1L  2.53
158. Y4S  2.52
159. E8A  2.51
160. K5N  2.5
161. H15V  2.49
162. P7M  2.49
163. Y4R  2.48
164. Y4C  2.48
165. S16G  2.48
166. Y4L  2.47
167. S16D  2.47
168. C6W  2.47
169. P7Q  2.46
170. K5W  2.46
171. Y4N  2.45
172. S16Q  2.45
173. A14Q  2.45
174. E1V  2.45
175. E1S  2.44
176. S17A  2.43
177. E11W  2.42
178. S17R  2.42
179. K5L  2.39
180. E11D  2.38
181. A14S  2.38
182. K5H  2.38
183. A14C  2.37
184. G10R  2.37
185. E8L  2.37
186. P7F  2.37
187. E1M  2.37
188. S16A  2.36
189. F13G  2.35
190. C9W  2.34
191. F13Q  2.33
192. P7L  2.33
193. E1I  2.33
194. K2W  2.32
195. H15R  2.31
196. G10K  2.31
197. E1N  2.31
198. K5G  2.31
199. H15A  2.3
200. S16R  2.3
201. Y4W  2.29
202. A14M  2.29
203. I12A  2.29
204. P7W  2.29
205. P3A  2.29
206. E8S  2.28
207. P7I  2.28
208. A14I  2.27
209. E8V  2.27
210. E11C  2.25
211. P7H  2.25
212. S17W  2.24
213. P7A  2.24
214. K5D  2.24
215. I12W  2.23
216. I12D  2.22
217. P7N  2.21
218. E1P  2.2
219. K5Y  2.2
220. E11I  2.19
221. F13Y  2.19
222. Y4F  2.15
223. G10W  2.14
224. P7G  2.14
225. E1F  2.13
226. P3V  2.13
227. Y4P  2.12
228. F13V  2.12
229. G10S  2.12
230. S17M  2.12
231. E11T  2.1
232. F13M  2.1
233. E8N  2.1
234. P3C  2.1
235. P3S  2.09
236. S17V  2.08
237. S17T  2.06
238. E1Y  2.06
239. E8I  2.04
240. I12M  2.04
241. E11A  2.03
242. G10F  2.03
243. E8F  2
244. E1G  1.99
245. E11G  1.98
246. S17Q  1.98
247. H15L  1.95
248. E8M  1.95
249. G10C  1.94
250. G10T  1.92
251. G10M  1.91
252. E11H  1.89
253. P3R  1.89
254. G10A  1.88
255. E8W  1.88
256. P3H  1.88
257. E11P  1.85
258. E1C  1.85
259. Y4M  1.84
260. S16T  1.84
261. G10Q  1.84
262. I12N  1.83
263. E1K  1.83
264. I12F  1.82
265. P7T  1.82
266. P3I  1.82
267. H15Y  1.8
268. E11F  1.79
269. G10I  1.79
270. G10V  1.78
271. P3Q  1.78
272. E11L  1.76
273. E1W  1.76
274. G10L  1.74
275. E11N  1.73
276. I12P  1.73
277. E11M  1.72
278. S16K  1.71
279. E8Q  1.71
280. H15I  1.7
281. I12V  1.7
282. G10Y  1.69
283. K2I  1.68
284. P7C  1.67
285. E11V  1.64
286. P7R  1.62
287. G10N  1.58
288. I12H  1.57
289. H15M  1.56
290. E1A  1.55
291. K5C  1.52
292. P3K  1.52
293. F13N  1.51
294. F13W  1.5
295. P7K  1.49
296. P3N  1.39
297. S16N  1.33
298. I12C  1.26
299. I12G  1.17
300. E11S  1.13
301. I12K  1.12
